# In the emibetuzumab library of Makowski et al. (2022):
# B1: VH:VL chains; a variant is named by its letters at X, in order (parent)
# chain 1: QVQLVQSGAEVKKPGASVKVSCKASGYTFTDYXMHWVRQAPGQGLEWMGXVNPNXXXTTYNQKFEGRVTMTTDTSTSTAYMELRSLRSDDTAVYYCARXNXLDXWGQGTTVTVSS
# chain 2: DIQMTQSPSSLSASVGDRVTITCSVSSSVSSIYLHWYQQKPGKAPKLLIYSTSNLASGVPSRFSGSGSGTDFTLTISSLQPEDFATYYCQVYSGYPLTFGGGTKVEIK
# Variants of: B1
# Experiment: yeast display scFab, FACS + sequencing
# Procedure, shortened: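 For the non-specific binding call, a heavy-chain CDR mutant scFab library on the yeast surface was FACS-sorted and samples from two replicates were deep sequenced. Cells were labelled with anti-Myc and either biotinylated ovalbumin (260 μg/mL in PBSB, 3 h, room temperature) or soluble membrane proteins (130 μg/mL, 20 min on ice), with gates on the top 25% and bottom 10% of binders. With membrane protein and ovalbumin samples pooled, a sequence in ≥3 of 4 positive samples and no negatives was scored positive, and the converse rule scored negatives.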
row,Variant,non-specific binding call
1,YRGRGAWF,binds
2,YRGRGFSD,binds
3,YRGRGFSA,binds
4,FRGRGAAY,binds
5,FRGRGAAS,binds
6,SRGRGSWD,binds
7,FRGRGAVY,binds
8,FRGRDVAV,binds
9,FRGRDFVS,binds
10,FRGRDFVA,binds
11,YRGRGSAF,binds
12,YRGRGSAY,binds
13,SRGRGAVS,binds
14,SRGRGAVD,binds
15,YRGRGSVY,binds
16,VRGRGFAA,binds
17,FRGRGFVA,binds
18,YRGRGDSV,no binding
19,DRGRDSSA,no binding
20,VRGRGFVV,binds
21,FRGRGSWV,binds
22,FRGRGSWS,binds
23,SRGRGSVD,binds
24,YRGRDSAS,no binding
25,FRGRDFSA,binds
26,FRGRGDVV,binds

row,Variant,non-specific binding call
1,FRGRGDVD,binds
2,YRGRGALF,binds
3,YRGRGALS,binds
4,YRGRGSSF,binds
5,YRGRGFLV,binds
6,YRGRGAVF,binds
7,FRGRDYAA,binds
8,FRGRDSSF,binds
9,FRGRDVVV,binds
10,YRGRDVGY,binds
11,YRGRGFAD,binds
12,YRGRGFAS,binds
13,YRGRGFAY,binds
14,FRGRGASD,binds
15,FRGRGASV,binds
16,FRGRGSGV,binds
17,FRGRGSGF,binds
18,VRGRDYGD,binds
19,FRGRGDWV,no binding
20,DRGRGDVV,no binding
21,FRGRGFGV,binds
22,FRGRGSVV,binds
23,FRGRGSVF,binds
24,FRGRGSVS,binds
25,FRGRGSVD,binds
26,FRGRGSVY,binds

row,Variant,non-specific binding call
1,FRGRGDGY,binds
2,FRGRGDGD,binds
3,YRGRGFWF,binds
4,YRGRDFVD,binds
5,DRGRDFGV,no binding
6,YRGRGASF,binds
7,YRGRDSWD,binds
8,ARGRGSAA,binds
9,FRGRGSSY,binds
10,FRGRGSSD,binds
11,FRGRGSSA,binds
12,FRGRDYGF,binds
13,FRGRDYGS,binds
14,FRGRDYGA,binds
15,FRGRDYGD,binds
16,FRGRDYGY,binds
17,SRGRGFAA,binds
18,ARGRGAWV,binds
19,YRGRDYGV,binds
20,ARGRGSVA,binds
21,FRGRGAWS,binds
22,FRGRGAWF,binds
23,FRGRGAWD,binds
24,FRGRGAWV,binds
25,ARGRGSSS,binds
26,SRGRGAGF,binds

row,Variant,non-specific binding call
1,SRGRGAWF,binds
2,SRGRGAWY,binds
3,SRGRGAWS,binds
4,SRGRGAWD,binds
5,SRGRGAWA,binds
6,FRGRGALS,binds
7,FRGRGALA,binds
8,FRGRGALF,binds
9,FRGRGALY,binds
10,FRGRGFSV,binds
11,FRGRGFSA,binds
12,YRGRDSSS,binds
13,YRGRDSVS,binds
14,FRGRDSWS,binds
15,YRGRGFVY,binds
16,YRGRGFVA,binds
17,YRGRGFVD,binds
18,YRGRGFVV,binds
19,DRGRGDWV,no binding
20,SRGRGSLS,binds
21,VRGRGALF,binds
22,VRGRGALS,binds
23,FRGRGSLF,binds
24,FRGRGSLS,binds
25,FRGRGSLV,binds
26,YRGRGSWY,binds

row,Variant,non-specific binding call
1,FRGRDSGY,binds
2,FRGRGDLS,binds
3,DRGRGSAD,binds
4,ARGRGAAS,binds
5,ARGRGAAD,binds
6,FRGRGSAY,binds
7,FRGRGSAD,binds
8,FRGRGSAV,binds
9,FRGRGSAA,binds
10,FRGRGSAF,binds
11,YRGRGFGY,binds
12,YRGRGFGF,binds
13,YRGRGFGS,binds
14,YRGRGFGV,binds
15,FRGRDSVA,binds
16,SRGRGSSS,binds
17,FRGRGAGS,binds
18,FRGRGAGA,binds
19,SRGRGSGA,binds
20,VRGRGFLD,binds
21,FRGRGFLS,binds
22,SRGRGFVA,binds
23,FRGRDFLD,binds
24,FRGRDFLF,binds
25,VRGRGDLA,no binding
